We go through one protein from ChEMBL document CHEMBL5226320, “A versatile toolbox for investigating biological processes based on quinone methide chemistry: From self-immolative linkers to self-immobilizing agents” (Bioorg Med Chem, 2021).

What all share (conditions): Homo sapiens
Substrate in data set [1]: O=c1ccc2nc3ccc(OCc4ccc(OP(=O)(O)O)cc4)cc3oc-2c1
Briefly: (§1) Binding affinity to ALP (unknown origin).

Substrate in data set [2]: O=c1ccc2nc3ccc(OP(=O)(O)O)cc3oc-2c1
The data set is described as §1.

Substrate in data set [3]: O=c1ccc2nc3ccc(OCc4ccc(OP(=O)(O)O)cc4)cc3oc-2c1
Briefly: (§2) Binding affinity to ALP (unknown origin) assessed as catalytic constant.

Substrate in data set [4]: O=c1ccc2nc3ccc(OP(=O)(O)O)cc3oc-2c1
The data set is described as §2.

Substrate in data set [5]: O=c1ccc2nc3ccc(OCc4ccc(OP(=O)(O)O)cc4)cc3oc-2c1
Briefly: (§3) Binding affinity to ALP (unknown origin) assessed as Kcat/Km.

Substrate in data set [6]: O=c1ccc2nc3ccc(OP(=O)(O)O)cc3oc-2c1
The data set is described as §3.

B1: Alkaline phosphatase, germ cell type (Homo sapiens), P10696 (protein)
chain: MQGPWVLLLLGLRLQLSLGIIPVEEENPDFWNRQAAEALGAAKKLQPAQTAAKNLIIFLGDGMGVSTVTAARILKGQKKDKLGPETFLAMDRFPYVALSKTYSVDKHVPDSGATATAYLCGVKGNFQTIGLSAAARFNQCNTTRGNEVISVMNRAKKAGKSVGVVTTTRVQHASPAGAYAHTVNRNWYSDADVPASARQEGCQDIATQLISNMDIDVILGGGRKYMFPMGTPDPEYPDDYSQGGTRLDGKNLVQEWLAKHQGARYVWNRTELLQASLDPSVTHLMGLFEPGDMKYEIHRDSTLDPSLMEMTEAALLLLSRNPRGFFLFVEGGRIDHGHHESRAYRALTETIMFDDAIERAGQLTSEEDTLSLVTADHSHVFSFGGYPLRGSSIFGLAPGKARDRKAYTVLLYGNGPGYVLKDGARPDVTESESGSPEYRQQSAVPLDGETHAGEDVAVFARGPQAHLVHGVQEQTFIAHVMAFAACLEPYTACDLAPRAGTTDAAHPGPSVVPALLPLLAGTLLLLGTATAP
Broadly, the Km is the substrate concentration at which the rate is half of its maximum. In general, kcat refers to the number of substrate molecules converted per active site and unit of time at saturation. The kcat/Km is the second-order rate constant that governs catalysis at low substrate concentration. With B1, the results for the Km in data set [1] and in data set [2] were 15.3 µM and 24.6 µM, respectively. Moreover, the values for the kcat in data set [3] and in data set [4] were 0.26 s⁻¹ and 0.16 s⁻¹, respectively. In addition, the kcat/Km in data set [5] was 1.7 10^4/M/s; in data set [6] it was 6.58 10^3/M/s.
